# *1 amine or outer side, *2 acyl side, *3 side chain or, on linkers, in order; H or OH if unused. Bridges are numbered along the chain shown (N, C = ends). Where no end group is shown, it is not given here. [ ]: non-standard residue; d: D form. The star is where a group is joined. 12302 = turn inducer derived from (2S,4R)-Fmoc-4-amino-1-BOC-pyrrolidine-2-carboxylic acid, O=C([C@@H]1C[C@@H](N[*:1])CN1[*:3])[*:2]; Isovaleryl = CC(C)CC(=O)*
# Experiments:
# Assay type in all cases: binding
# [1] = target: T1, rat sodium channel 1.2 (rNav1.2) (Rattus norvegicus, UniProt P04775); assay: rat Nav1.2 channel assay: competitive inhibition of 125H-TIIIA from rat brain homogenate; settings: single concentration 10 μM
# T1 construct: from tissue; host or cells: rat brain homogenate / rat brain membrane
# T1 sequence (P04775 whole entry): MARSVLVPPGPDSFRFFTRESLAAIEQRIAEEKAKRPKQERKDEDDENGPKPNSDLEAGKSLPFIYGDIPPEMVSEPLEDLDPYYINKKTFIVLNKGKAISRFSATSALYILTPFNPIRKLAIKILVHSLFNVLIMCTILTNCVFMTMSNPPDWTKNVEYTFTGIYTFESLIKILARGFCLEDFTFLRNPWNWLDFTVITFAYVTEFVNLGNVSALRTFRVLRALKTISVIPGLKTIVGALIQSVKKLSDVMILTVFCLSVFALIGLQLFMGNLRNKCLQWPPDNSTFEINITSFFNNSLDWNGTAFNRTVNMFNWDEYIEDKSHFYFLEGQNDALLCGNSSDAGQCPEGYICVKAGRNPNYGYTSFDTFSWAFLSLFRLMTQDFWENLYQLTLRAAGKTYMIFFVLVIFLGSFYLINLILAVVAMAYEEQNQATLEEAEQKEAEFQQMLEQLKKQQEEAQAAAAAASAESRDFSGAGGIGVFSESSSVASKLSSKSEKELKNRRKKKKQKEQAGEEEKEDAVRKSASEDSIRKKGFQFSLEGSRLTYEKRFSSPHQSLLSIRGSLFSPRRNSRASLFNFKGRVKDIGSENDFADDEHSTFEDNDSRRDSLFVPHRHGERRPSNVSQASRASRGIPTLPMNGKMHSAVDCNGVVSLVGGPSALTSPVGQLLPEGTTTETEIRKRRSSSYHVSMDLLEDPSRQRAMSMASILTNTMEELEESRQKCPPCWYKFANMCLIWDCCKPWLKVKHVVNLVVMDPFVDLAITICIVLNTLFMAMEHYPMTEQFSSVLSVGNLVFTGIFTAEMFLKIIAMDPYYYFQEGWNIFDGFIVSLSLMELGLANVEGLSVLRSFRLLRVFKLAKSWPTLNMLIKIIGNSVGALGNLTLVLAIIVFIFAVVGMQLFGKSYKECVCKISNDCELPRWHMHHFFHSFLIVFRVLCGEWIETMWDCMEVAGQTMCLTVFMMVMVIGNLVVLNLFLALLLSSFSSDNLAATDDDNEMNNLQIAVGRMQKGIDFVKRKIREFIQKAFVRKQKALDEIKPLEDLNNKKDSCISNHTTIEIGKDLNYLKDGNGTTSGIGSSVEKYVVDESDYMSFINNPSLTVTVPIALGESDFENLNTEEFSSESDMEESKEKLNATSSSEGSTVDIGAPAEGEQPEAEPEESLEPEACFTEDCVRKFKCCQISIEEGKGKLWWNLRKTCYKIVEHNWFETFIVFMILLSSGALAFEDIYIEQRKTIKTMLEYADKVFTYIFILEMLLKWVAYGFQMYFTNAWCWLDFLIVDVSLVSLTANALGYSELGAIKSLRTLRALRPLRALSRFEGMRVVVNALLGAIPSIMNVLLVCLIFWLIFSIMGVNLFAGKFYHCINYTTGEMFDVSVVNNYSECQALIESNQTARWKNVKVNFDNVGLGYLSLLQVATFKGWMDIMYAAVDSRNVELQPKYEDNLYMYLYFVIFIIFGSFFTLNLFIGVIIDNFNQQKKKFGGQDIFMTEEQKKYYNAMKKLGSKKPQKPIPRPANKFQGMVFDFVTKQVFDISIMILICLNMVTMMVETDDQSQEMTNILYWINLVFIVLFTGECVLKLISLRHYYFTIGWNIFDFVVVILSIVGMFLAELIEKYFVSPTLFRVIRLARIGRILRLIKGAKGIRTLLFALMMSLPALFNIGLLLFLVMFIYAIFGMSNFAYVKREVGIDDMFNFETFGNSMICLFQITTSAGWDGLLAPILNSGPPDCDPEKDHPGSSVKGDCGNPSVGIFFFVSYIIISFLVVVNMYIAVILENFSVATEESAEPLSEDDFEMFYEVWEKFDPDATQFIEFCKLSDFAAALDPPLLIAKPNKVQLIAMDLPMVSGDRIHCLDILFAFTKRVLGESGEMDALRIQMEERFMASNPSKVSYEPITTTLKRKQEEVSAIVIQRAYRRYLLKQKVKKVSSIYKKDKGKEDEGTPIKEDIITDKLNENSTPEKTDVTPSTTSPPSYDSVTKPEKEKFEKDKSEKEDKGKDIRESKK
# Description: A homogeneous assay was used to determine the ability of compounds to act as inhibitors of the rat sodium channel 1.2 (rNav1.2) as measured by competitive inhibition of ^125H-TIIIA from rat brain homogenate.
# Total assay volume was 80 μL (20 μL competing ligand, 20 μL, SPA beads, 20 μL rat brain homogenate and 20 μL iodinated ligand). Assay buffer used was HEPES (20 mM pH7.2), MgCl2 (75 mM), EDTA (0.2 mM), EGTA (0.2 mM), BSA (0.1%) and 2% diluted protease inhibitors (Roche cat #1826145). Peptides were initially screened at a single concentration of 10 μM. […] The competing ligands were added to the assay plate followed by Flashblue GPCR scintillating beads at a concentration of 100 μg/well (Perkin Elmer cat #FBB001), rat brain membrane and 30 pM ^125H-TIIIA. After the addition of all reagents the plate was sealed and incubated at RT for 1 h with shaking. The plate was then counted on a Wallac Microbeta instrument.
# [2] = target: T2, human norepinephrine transporter (hNET) (Homo sapiens, UniProt P23975); settings: single concentration 10 μM, 3H-nisoxetine displacement
# T2 construct: purchased Perkin Elmer Life Sciences RBHNETM400UA
# T2 sequence (P23975 whole entry): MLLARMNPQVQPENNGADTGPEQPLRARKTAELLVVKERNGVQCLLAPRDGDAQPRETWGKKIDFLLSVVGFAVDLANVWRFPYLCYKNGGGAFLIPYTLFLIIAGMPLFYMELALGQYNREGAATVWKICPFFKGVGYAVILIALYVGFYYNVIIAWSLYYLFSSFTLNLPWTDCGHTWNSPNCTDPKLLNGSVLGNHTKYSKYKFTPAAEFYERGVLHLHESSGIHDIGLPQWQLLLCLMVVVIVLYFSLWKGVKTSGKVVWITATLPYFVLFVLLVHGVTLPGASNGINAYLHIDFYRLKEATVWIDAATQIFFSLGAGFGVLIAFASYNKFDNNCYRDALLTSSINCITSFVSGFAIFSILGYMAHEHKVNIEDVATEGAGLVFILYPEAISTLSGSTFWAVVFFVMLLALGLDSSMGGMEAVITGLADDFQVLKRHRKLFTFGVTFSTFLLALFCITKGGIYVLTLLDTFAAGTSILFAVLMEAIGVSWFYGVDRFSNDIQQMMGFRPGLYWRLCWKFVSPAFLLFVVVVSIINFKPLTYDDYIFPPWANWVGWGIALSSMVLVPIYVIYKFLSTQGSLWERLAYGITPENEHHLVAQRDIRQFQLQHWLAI
# Description: The ability of compounds to act as inhibitors of the human norepinephrine transporter (hNET) was measured by competitive inhibition of ^3H-nisoxetine from membrane expressing hNET.
# Total assay volume 150 μL (50 μL peptide conjugate, 50 μL tritiated compound and 50 μL membrane) with each data point performed in triplicate. Assay buffer used was TrisHCl (50 mM, pH 7.4), NaCl (120 mM) and KCl (5 mM). Peptide conjugates were initially screened at a single concentration of 10 μM. […] After the addition of the membrane the assay was incubated for 1 h at RT after which the reaction was filtered onto GF filtermats B (Perkin Elmer cat #1450-521) pretreated with 0.6% PEI using a Tomtec cell harvester and washed 3 times using wash buffer (20 mM HEPES pH 7.4, 125 mM NaCl @ 4° C.). Filtermats were then dried, placed in a filter bag, 9 mL betaplate scintillant (Perkin Elmer cat #1205-440) added and filtermats counted on a Wallac Microbeta instrument.
# [3] = target: T3, human delta2 Opioid Receptor (hδ2OR) (Homo sapiens, UniProt P41143); assay: hδ2OR assay: competitive inhibition of 3H-Naltrindole from membrane expressing hδ2OR; settings: single concentration 10 μM
# T3 construct: purchased Perkin Elmer Life Sciences RPNQ001
# T3 sequence (P41143 whole entry): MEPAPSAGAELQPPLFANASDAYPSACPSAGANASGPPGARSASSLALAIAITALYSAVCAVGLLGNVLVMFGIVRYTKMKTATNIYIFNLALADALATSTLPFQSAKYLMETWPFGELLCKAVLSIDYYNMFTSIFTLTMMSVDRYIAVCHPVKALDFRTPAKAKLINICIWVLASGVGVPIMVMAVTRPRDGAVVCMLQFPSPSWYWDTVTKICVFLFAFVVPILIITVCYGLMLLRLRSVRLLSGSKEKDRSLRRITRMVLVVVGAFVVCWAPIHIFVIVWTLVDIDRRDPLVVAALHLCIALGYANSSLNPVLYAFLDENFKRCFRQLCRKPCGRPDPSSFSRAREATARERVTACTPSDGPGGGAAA
# Description: A homogeneous assay was used to determine the ability of compounds to act as inhibitors of the hδ2OR as measured by competitive inhibition of ^3H-Naltrindole from membrane expressing hδ2OR.
# Total assay volume was 80 μL (20 μL competing ligand, 20 μL SPA beads, 20 μL, membrane and 20 μL tritiated ligand). Assay buffer used was Tris HCl (50 mM, pH 7.4), MgCl2 (5 mM) and BSA (0.1%). Peptides were initially screened at a single concentration of 10 μM. Confirmation of any hits was performed using full dose response of the peptide using various concentrations (10^−4 to 10^−11M) or control ligand (Naltriben). The competing ligands were added to the assay plate followed by SPA beads at a concentration of 100 μg/well (GE Healthcare, Amersham Cat. #FBB001) and […] (Perkin Elmer Life Sciences Cat #RPNQ001). This was followed by 1.6 nM […] [for a final concentration 0.4 nM] (Perkin Elmer Cat #NET1065), after which the plate was sealed and incubated at RT for 1 hr with shaking. The plate was then counted on a Wallac Microbeta instrument.
Substance,% inhib @ 10 μM [1] [%],% inhib @ 10 μM [2] [%],% inh @ 10 μM [3] [%]
6 (CV[H2NNH:CHNH(CH2)3CO]KC; disulfide 1-5 (inferred); not fully specified) [compound 6],>70,94,
46 (CF[12302](cyclohex‑CH2—CO)YC; disulfide 1-5 (inferred)) [compound 46],,,>80
47 (CF[12302](Isovaleryl)YC; disulfide 1-5 (inferred)) [compound 47],,,>80
